This series relates to MS2 coat protein. Briefly: apparent KD of MS2 coat protein; higher = weaker reporter binding. The conditions noted are these: Eterna round: R107. The protocol: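 RNA-MaP round R107: designed RNA switches with theophylline, tryptophan, arginine or FMN aptamers are transcribed on-chip within common flanks. They are titrated with SNAP-549-labelled MS2 coat protein in RNA-MaP buffer (100 mM Tris pH 7.5, 80 mM KCl, 4 mM MgCl2), without ligand or with the indicated ligand. Median apparent KD per design.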

The mark [1] stands for this setting: input ligand: theophylline 20 uM.
The mark [2] stands for this setting: input ligand: theophylline 2 mM.
[3] abbreviates: input ligand: tryptophan 2.4 mM.

Data on 18 sequences can be found in the supplement of paper PMC9170038.

Take “GGACCAUGGAGCGAUACCAGCUUGAGUGUGCUGGCCAGGCACAUGAGGAUCACCCAUGUAAGCCCUUGGCAGCGCUCCAUGGUCC [#1 Exclusion - Theophylline B Attempt #26 (HarryS)]”: the “apparent KD of MS2 coat protein” value by setting is: (input ligand: arginine 13.2 mM) 7.45 nM; (input ligand: none) 8.39 nM; under setting [1], 13.3 nM; under setting [2], 13.5 nM; under setting [3], 10.6 nM.
As to “CAAUCAAUCAAUCAAUCAAUCAACCAUGAAGGAGCGUGGGAAACCACAGGUAGGUCGCAUGGAAAACAUGAGGAUCACCCAUGUA [Casablanca]”, the “apparent KD of MS2 coat protein” value reads like this: (input ligand: arginine 13.2 mM) 22.1 nM; (input ligand: none) 30.9 nM; under setting [1], 45.2 nM; under setting [2], 36.4 nM; under setting [3], 29.2 nM.
For “GCUACGUGCUGAAGGAGCGUGGACCUAAACAUGAGGAUCACCCAUGUCGUGUAGGCAGAUUCACAGGUAGGUCGCAGCACGUAGC [SSAB NP+V+V2 #14 Same Structure]”, in that order: 61.2 nM, 92.2 nM, 123 nM, 120 nM and 99.7 nM.
For “ACAUGAGGAUCACCCAUGUGUGUAAGUUCUCGAGGACCGGUACGGCCGCCACUCGAACGAGUGUAACGUUAUACUUAGUAUAAUG [SS Trp A s4]”, in that order: 22.6 nM, 11.4 nM, 21.3 nM, 15.2 nM and 11.4 nM.
For “AGAGUCUAGUCGGCCGCCACUCAUGUCCAAAGGACAUGAGGAUCACCCAUGUACCUAAGGUACAUGAGGACCGGGACUGGACUCA [Omei Tryp B SS C v5]”, in that order: 13.1 nM, 24.4 nM, 131 nM, 336 nM and 7.92 nM.
In the case of “AAUUAAACAUCGGCCGCCACUUACUCAUGAGGUAACAACAUGAGGAUCACCCAUGUUUGAGGAUCAAGGACCGGGAUGUAAUAAU [AstrosSSTryB#2]”, the “apparent KD of MS2 coat protein” value is 23.2 nM (input ligand: arginine 13.2 mM), 38.5 nM under setting [1] and 36.8 nM under setting [2].
For “AUACAUGAGGAUCACCCAUGUCAUUCAGAAGGAGCGUCAUUUUAGACAGGUAGGUCGCUGAUAUUAUUCUUAUACUUUAUGUUUA [JR_ExcArginiA_Sub022]”, the “apparent KD of MS2 coat protein” value (input ligand: arginine 13.2 mM) is 21 nM; the “apparent KD of MS2 coat protein” value (input ligand: none) was 17.7 nM; the “apparent KD of MS2 coat protein” value under setting [1] stood at 26 nM; the “apparent KD of MS2 coat protein” value under setting [2] came to 19.5 nM; the “apparent KD of MS2 coat protein” value under setting [3] stood at 20.2 nM.
As for “GAUGGAAUAAGAGAUACCAGACACAAUUUAGCAUGUAUAUACAUGAGGAUCACCCAUGUAGUCCCUUGGCAGCUCUGGUUAGUGU [theeternabot_exclusion_MS2_Theo_B_48]”, the “apparent KD of MS2 coat protein” value runs as follows: (input ligand: arginine 13.2 mM) 21.4 nM; under setting [1], 27.7 nM; under setting [3], 20.8 nM.
As to “GAGCUCGUGGACUGGCGUGCUCCGCUCCGUCGAGGACCGGUACGGCCGCCACUCGACAUGAGGAUCACCCAUGUGUGAGCUCGCU [#1 Exclusion - Tryptophan A Attempt #21 (HarryS)]”, the “apparent KD of MS2 coat protein” value runs as follows: (input ligand: arginine 13.2 mM) 61.1 nM; under setting [1], 185 nM; under setting [2], 390 nM.
Take “AGGGAAUGAAUAGAAUGAGAUGACACAGAAGGAGCGCCGAUUAAGGCAGGUAGGUCGCUGACAACAUGAGGAUCACCCAUGUUAA [#11 Same State - Arginine A]”: the “apparent KD of MS2 coat protein” value (input ligand: arginine 13.2 mM) was found to be 8.73 nM; the “apparent KD of MS2 coat protein” value (input ligand: none) turned out to be 17 nM; the “apparent KD of MS2 coat protein” value under setting [1] was found to be 14.1 nM; the “apparent KD of MS2 coat protein” value under setting [2] was 17.5 nM; the “apparent KD of MS2 coat protein” value under setting [3] stood at 20.6 nM.
On the same counts, the results for “UUUUUCGCGGGUGAUACCAGCAGAGUUGUACUGGUCUGGUACAUGAGGAUCACCCAUGUUUGCCCUUGGCAGCGCUCGGGAGAAG [#23 Exclusion-TheophyllineB]” are 29.3 nM, 19.8 nM, 32.1 nM, 44.4 nM and 24.1 nM.
As for “GGACUAACUCGAAGGAGCGACACGCAGAAACUGCAAUUUCCUCCACACGAGGAUCACCCGUGUCAGGUAGGUCGCGAGUUAGUCG [ArgBX 29]”, the “apparent KD of MS2 coat protein” value was determined as 20.8 nM (input ligand: arginine 13.2 mM); 21.8 nM (input ligand: none); 26.3 nM under setting [1]; 28 nM under setting [2]; 19.8 nM under setting [3].
On to “AGUGUUAUAACUGAUACCAGACCUUUGCUUAUACAUGAGGAUCACCCAUGUAAAAUGGCGGUCCCUUGGCAGCAGAGAAUACGCA [#09 Same State - Theophylline B]”, for which the “apparent KD of MS2 coat protein” value turned out to be 52.2 nM (input ligand: arginine 13.2 mM), 57 nM under setting [1] and 60.1 nM under setting [3].
On to “AAUACCGGAUCGGCCGCCACUGGUUGGCCCUGUGUACAUGAGGAUCACCCAUGUCCAUCCCAAGCCAGGACCGGGAUCUUUGUGU [Bedice]”, for which the “apparent KD of MS2 coat protein” value worked out at 17.1 nM (input ligand: arginine 13.2 mM), 24.9 nM under setting [1] and 18.5 nM under setting [2].
Consider “AAUGAACAUGAGGAUCACCCAUGUCGUGAUACCAGCCGUAAGAGUGGCCCUUGGCAGCGCCAUGAGGACAACAACAUACAUGAGG [Same State Theophylline A]”, for which the “apparent KD of MS2 coat protein” value by setting is: (input ligand: arginine 13.2 mM) 22.9 nM; under setting [1], 29.7 nM; under setting [3], 24.8 nM.
For “GCUUAGAAACCUGAUACCAGUCAGCCCUAUGACAUGAGGAUCACCCAUGUGAUACUCACGGACCCUUGGCAGCAGGGUCGAUUAC [theeternabot_sameState_MS2_Theo_B_17]”, in that order: 231 nM, 812 nM and 1000 nM.
As to “GAGUAGAGGACGGCCGCCACUGAACAUGAGGAUCACCCAUGUCGUGAUCCGUUGCCUGAAGAAGAUAGGACCGGGUCAUGUGCUC [Exclusion Tryptophan B GF 20]”, the “apparent KD of MS2 coat protein” value is 40.4 nM (input ligand: arginine 13.2 mM); 28.6 nM (input ligand: none); 44.7 nM under setting [1]; 31.8 nM under setting [2]; 25.5 nM under setting [3].
Take “AUCGCACCUGGUGAUACCAGCGUUUGCUCGCGACAUGAGGAUCACCCAUGUGGCCAGUGAUGCCCUUGGCAGCAUGGGCGGUGCA [Same State - Theophylline B (Freestyle 28)]”: the “apparent KD of MS2 coat protein” value by setting is: (input ligand: arginine 13.2 mM) 111 nM; under setting [1], 412 nM; under setting [3], 349 nM.
